# According to IntAct's records for PubMed 27065194:
# B1: Protein BTG4 (Mus musculus), O70552 (parent)
# chain: MRDEIATAVFFVTRLVKKHEKLSTQQIETFALKLMTILFEKYRGHWHPDCPSKGQAFRCIRINNNENKDPVLERACAESNVNFFHLGLPKEMTIWVDPYEVCCRYGEKKHPFTIASFKGRWENWELAQHVSCAVNRATGDCSSGTSSDEESCSREAQIIPKVNNPKSVYQVENFKQSLQPWFCLPRRKHLADGRGFLPGAACHPVPKSSKWCRPASRRVDRYHWVNAQLFSGQTAPGEPGEEALSSLKQK
# Variants of: B1
# Conditions: with cnot7_mouse Cnot7, Q60809
# cnot7_mouse Cnot7, Q60809, sequence (Q60809 whole entry): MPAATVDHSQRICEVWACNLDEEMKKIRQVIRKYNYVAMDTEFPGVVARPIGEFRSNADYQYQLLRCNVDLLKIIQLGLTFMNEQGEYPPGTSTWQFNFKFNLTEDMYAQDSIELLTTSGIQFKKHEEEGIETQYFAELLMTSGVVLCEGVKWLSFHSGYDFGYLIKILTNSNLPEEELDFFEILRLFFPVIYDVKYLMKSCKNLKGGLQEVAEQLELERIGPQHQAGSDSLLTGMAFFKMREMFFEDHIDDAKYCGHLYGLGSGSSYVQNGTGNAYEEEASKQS
row,effect of a mutation on the interaction,Variant
1,disrupting interaction strength,D69A
2,disrupting interaction strength,E107A
3,disrupting interaction strength,W95A
4,decreasing interaction strength,C59A

# The remaining lines, values behind:
row,Variant,effect of a mutation on the interaction
1,W46A,disrupting interaction strength
2,R58A,disrupting interaction strength
3,H45A,disrupting interaction strength

# Variants of: B1
# Conditions: with cnot8_mouse Cnot8, Q9D8X5
# cnot8_mouse Cnot8, Q9D8X5, sequence (Q9D8X5 whole entry): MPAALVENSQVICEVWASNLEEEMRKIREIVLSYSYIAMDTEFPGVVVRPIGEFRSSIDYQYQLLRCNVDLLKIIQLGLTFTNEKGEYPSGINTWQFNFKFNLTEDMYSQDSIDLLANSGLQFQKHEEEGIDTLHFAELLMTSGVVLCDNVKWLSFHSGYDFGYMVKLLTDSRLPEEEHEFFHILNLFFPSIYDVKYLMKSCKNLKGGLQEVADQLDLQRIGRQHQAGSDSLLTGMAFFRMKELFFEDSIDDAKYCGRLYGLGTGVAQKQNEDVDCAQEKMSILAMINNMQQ
row,effect of a mutation on the interaction,Variant
1,disrupting interaction strength,W95A
